# From the supplement of paper PMC7877785
# ± gives the uncertainty stated by the source.
# Test: self-splicing fitness, log relative to wild type (ln ratio); higher = more splicing; Tetrahymena group I intron in knt gene, E. coli kanamycin selection, DiMSum; sequences stand for … in CUCUCU…GGAGGGAAAAGUUAUCAGGCAUGCACCUGGUAGCUAGUCUUUAAACCAAUAGAUUGCAUCGGUUUAAAAGGCAAGACCGUCAAAUUGCGGGAAAGGGGUCAACAGCCGUUCAGUACCAAGUCUCAGGGGAAACUUUGAGAUGGCCUUGCAAAGGGUAUGGUAAUAAGCUGACGGACAUGGUCCUAACCACGCAGCCAAGUCCUAAGUCAACAGAUCUUCUGUUGAUAUGGAUGCAGUUCACAGACUAAAUGUCGGUCGGGGAAGAUGUAUUCUUCUCAUAAGAUAUAGUCGGACCUCUCCUUAAUGGGAGCUAGCGGAUGAAGUGAUGCAACACUGGAGCCGCUGGGAACUAAUUUGUAUGCGAAAGUAUAUUGAUUAGUUUUGGAGUACUCGUGGUCG
# In short: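 The eight P1ex-region nucleotides of an intron in the knt kanamycin-resistance gene on pET-22b(+) were all randomised and the library put into E. coli BL21(DE3). Six replicate transformations were grown overnight at 37°C or 30°C on LB agar with or without 25 μg/mL kanamycin, together with 100 μg/mL carbenicillin, 50 μM IPTG and 0.2% rhamnose. Colonies were pooled and amplicon-sequenced on an Illumina HiSeq 2500. Fitness from DiMSum is the error-weighted combination of wild-type-normalised replicate fold changes, kanamycin over none.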
Sequence,self-splicing fitness (ln) (30 °C),self-splicing fitness (ln) (37 °C)
CGUGAGCAAUAUUACGUGAU,-3.8 ± 0.24,-3.21 ± 0.23
CGUGAGCAAUAUUACGUUCG,-2.61 ± 0.15,-3.09 ± 0.28
CGUGAGCAAUAUUACGUUGU,-4.24 ± 0.26,-1.58 ± 0.17
CGUGAGCAAUAUUACGUUUU,-3.42 ± 0.16,-3.73 ± 0.37
CGUUAGCAAUAUUACGACAG,0.473 ± 0.14,-0.134 ± 0.15
CGUUAGCAAUAUUACGACUG,-0.369 ± 0.12,0.327 ± 0.14
CGUUAGCAAUAUUACGAUAG,-0.0326 ± 0.15,-0.211 ± 0.14
CGUUAGCAAUAUUACGAUCC,-1.74 ± 0.19,-0.851 ± 0.21
CGUUAGCAAUAUUACGAUCG,-0.9 ± 0.11,-1.12 ± 0.14
CGUUAGCAAUAUUACGCACU,-2.03 ± 0.12,-0.906 ± 0.11
CGUUAGCAAUAUUACGCAUC,,-2.72 ± 0.41
CGUUAGCAAUAUUACGCCAG,-0.657 ± 0.22,0.474 ± 0.35
CGUUAGCAAUAUUACGCUGA,-2.78 ± 0.3,-2.66 ± 0.29
CGUUAGCAAUAUUACGGAUC,-2.18 ± 0.12,-1.13 ± 0.19
CGUUAGCAAUAUUACGGGUG,-0.565 ± 0.057,0.0881 ± 0.071
CGUUAGCAAUAUUACGGUAC,-2.98 ± 0.24,-2.96 ± 0.38
CGUUAGCAAUAUUACGUAAC,,-2.3 ± 0.46
CGUUAGCAAUAUUACGUACA,-0.358 ± 0.11,-0.966 ± 0.12
CGUUAGCAAUAUUACGUACU,-0.583 ± 0.078,0.0264 ± 0.097
CGUUAGCAAUAUUACGUAGA,-2.87 ± 0.18,-1.9 ± 0.22
CGUUAGCAAUAUUACGUAGU,-4.27 ± 0.25,-2.85 ± 0.23
CGUUAGCAAUAUUACGUGAG,-1.59 ± 0.087,-0.0698 ± 0.13
CGUUAGCAAUAUUACGUUGC,-3.94 ± 0.34,-1.95 ± 0.18
CUAAAGCAAUAUUACGAAAA,-3.34 ± 0.41,-2.19 ± 0.35
CUAAAGCAAUAUUACGAAGA,-2.46 ± 0.27,-1.61 ± 0.3

Sequence,self-splicing fitness (ln) (30 °C),self-splicing fitness (ln) (37 °C)
CUAAAGCAAUAUUACGAAGG,-1.03 ± 0.095,-0.0689 ± 0.14
CUAAAGCAAUAUUACGACAG,0.277 ± 0.093,0.751 ± 0.12
CUAAAGCAAUAUUACGAGAG,-1.13 ± 0.075,-0.601 ± 0.099
CUAAAGCAAUAUUACGAGGG,-2.22 ± 0.094,-2.22 ± 0.16
CUAAAGCAAUAUUACGAGGU,-4.41 ± 0.24,-2.81 ± 0.25
CUAAAGCAAUAUUACGAUCG,0.485 ± 0.073,0.485 ± 0.1
CUAAAGCAAUAUUACGAUGC,-3.96 ± 0.3,-3.1 ± 0.33
CUAAAGCAAUAUUACGAUUU,-4.23 ± 0.28,-2.46 ± 0.32
CUAAAGCAAUAUUACGCAAA,-3.47 ± 0.25,
CUAAAGCAAUAUUACGCUCC,-3.15 ± 0.29,-2.29 ± 0.35
CUAAAGCAAUAUUACGGAUU,-4.39 ± 0.22,-2.62 ± 0.23
CUAAAGCAAUAUUACGGGAC,-2.11 ± 0.13,-0.677 ± 0.13
CUAAAGCAAUAUUACGGUCC,-4.33 ± 0.47,-2.2 ± 0.35
CUAAAGCAAUAUUACGUAAC,-2.86 ± 0.12,-1.62 ± 0.12
CUAAAGCAAUAUUACGUCGA,,-1.99 ± 0.2
CUAAAGCAAUAUUACGUCUC,,-1.93 ± 0.46
CUAAAGCAAUAUUACGUGCA,-2.77 ± 0.2,-1.91 ± 0.18
CUAAAGCAAUAUUACGUGCC,-4.57 ± 0.29,-2.25 ± 0.18
CUAAAGCAAUAUUACGUGGU,-3.41 ± 0.12,-2.73 ± 0.15
CUAAAGCAAUAUUACGUGUA,-3.82 ± 0.19,-3.2 ± 0.23
CUACAGCAAUAUUACGACCG,0.86 ± 0.11,-0.315 ± 0.14
CUACAGCAAUAUUACGAGAA,-2.84 ± 0.46,-1.92 ± 0.28
CUACAGCAAUAUUACGAGUU,-4.98 ± 0.2,-2.76 ± 0.17
CUACAGCAAUAUUACGCAUA,-3.32 ± 0.24,-2.28 ± 0.2
